Positions count from the first letter of the chain named. Non-standard residues stand in square brackets, D forms with d. No end group written: not given here. pT = C[C@@H](OP(=O)(O)O)[C@H](N)C(=O)O; pS = N[C@@H](COP(=O)(O)O)C(=O)O

Data on 13 molecules can be found in patent publication US20240059766A1 (VOYAGER THERAPEUTICS, published 2024).

Sequences and labels used below:
T1: Tau204-222 phospho-peptide (pT212) (human, also: SCBiot-(dPEG4) in the ELISA)
T1 peptide: GTPGSRSR[pT]PSLPTPPTRE

T2: Tau204-222 phospho-peptide (pS214) (human, also: SCBiot-(dPEG4) in the ELISA)
T2 peptide: GTPGSRSRTP[pS]LPTPPTRE

T3: Tau204-222 phospho-peptide (pT212/pS214) (human, also: SCBiot-(dPEG4) in the ELISA)
T3 peptide: GTPGSRSR[pT]P[pS]LPTPPTRE

T4: AC04 peptide (human, pT212, pT217: CSR(pT)PSLP(pT)PPTREPK)
T4 peptide: CSRXPSLPXPPTREPK

T5: wtTau C2 (human)
T5 peptide: PTREPKKVA

T6: AT8 peptide (amino acids 195-215 of tau) (human, phospho-peptide; the phosphorylated sites are not stated; immobilized on streptavidin biosensor tips)
T6 peptide: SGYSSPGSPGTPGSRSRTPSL

T7: Tau phospho-peptide (pS235) (human)
T7 construct: also called pS235 phospho-peptide
T7 peptide: KVAVVRTPPK[pS]PSSAKPS

B1: VY007 (antibody, V domains shown)
VH: EVQLVESGGGLVQPGGSLRLSCAASRFTFSNYNMNWVRQAPGKGLEWISYISSSSSTIYYADSVKGRFTISRDNAKNSLSLQMNSLRDEDTAVYYCASLGRGYWGQGTLVTVSS
VL: not shown
B2: VY001 (antibody, V domains shown)
VH: B1 VH with R26G, N31S, S56N, I70V, S80Y, S98T, T111I, V112A
VL: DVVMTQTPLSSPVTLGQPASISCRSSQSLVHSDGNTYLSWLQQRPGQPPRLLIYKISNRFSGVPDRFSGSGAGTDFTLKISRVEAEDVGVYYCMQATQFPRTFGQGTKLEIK
B3: VY006 (antibody, V domains shown)
VH: EVQLVESGGGLVQPGGSLRLSCAASGFTFSSYTMNWVRQAPGKGLEWVSYISSSSSTIYYADSVKGRFTISRDNAKNSLYLQMNSLRDEDTAVYYCASLGRGDCWGQGTLVTVSS
VL: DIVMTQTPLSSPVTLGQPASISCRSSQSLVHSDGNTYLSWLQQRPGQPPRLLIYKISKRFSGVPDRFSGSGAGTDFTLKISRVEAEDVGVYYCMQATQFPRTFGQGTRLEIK
B4: VY004 (antibody, V domains shown)
VH: EVQLVESGGGLVQAGGSLRLSCAASGFTFSDYSMNWVRQAPGKGLEWVSYIRSSSSIIYYADSVKGRFTISRDNAKNSLHLQMNSLRDEDTAVYYCARRGHFDYWGQGTLVTVSS
VL: EIVLTQSPATLSLSPGERATLSCRASQSVSDYLAWYQQKPGQAPRLFIYDVSKRATGIPARFSGSGSGTDFTLTISSLEPEDFAVYYCQQRSNWPLTFGGGTKVEIK
B5: VY005 (antibody, V domains shown)
VH: B3 VH with T33S, V48I, S55N, Y59K, S98R, L99R, G100S, R101L, C104Y, T112I
VL: DIQLTQSPSFLSASVGDRVTITCRASQGISCSLAWYQQKPGKAPKLLIYAASTLQSGVPSRFSGSGSGTEFTLTISSLQPEDFATYYCQQFNSYPFTFGPGTKVDIK
B6: VY013 (antibody, V domains shown)
VH: QVTLKESGPVLVKPTETLTLTCTVSGFSLINARMAVSWIRQPPGKALEWLAHIFSNDEKSYSTSLKSRLTISKDTSKSQVVLIMTNMDPVDTATYYCARIRGYSYNYGMDVWGQGTTVTVSS
VL: DIVMTQSPLSLPVIPGEPASISCRSSQSLLHSNGYIYLDWYLQKPGQSPQLLIYVGSNRASGVPDRFSGSGSGTDFKLKISRVEAEDVGVYYCMQTLQIPRTFGGGTKVEIK
B7: VY014 (antibody, V domains shown)
VH: EVQLVESGGGLVQPGGSLRLSCAASGFTFNNYDMHWVRQAAGKGLEWVSTIGAAGDTYYPGSVKGRFIISRENAKNSLYLQMNSLRAGDTAVYYCARAGETLEGATIGYYYGMDVWGQGTTVTVSS
VL: B6 VL with V3L, I14T, I36N, V55L, K77T, I80F, V90L, T96A, R101L
B8: VY009 (antibody, V domains shown)
VH: QITLKESGPTLVKPTQTLTLTCTLSGFSLSTSEVGVGWIRQPPGKALEWLAIIYWNDHKRYSPSLKNRLTFTKDTSKNQVVLTMTNMDPVDTATYYCARRVTGEGFDPWGQGTLVTVSS
VL: SYELTQPPSVSVSPGQTARITCSGDALPKQYAYWYQQKPGQAPVLVIFKDTERPSGIPERFSGSSSGTTVTLTISGVQAEDEADYYCQSADSSGSYVFGTGTKVTVL
B9: VY019 (antibody, V domains shown)
VH: QVQLQESGPGLVKPSETLSLTCTVSGGSISSYYWTWIRQPAGKGLEWIGRIDTSGSTNYNPSLKSRVTMSIDTSKKQFSLKLSSVTAADTAVYYCARGGDGYRYWGQGTLVTVSS
VL: B8 VL with Y33C, F48Y, T51S, S75T, A90T, Y96W, T100G, V104L
B10: VY012 (antibody, V domains shown)
VH: EVQLLESGGGLVQPGGSLRLSCAASGFTYSSYAMSWVRRAPGKGLEWISIISGSSSITYYADSMKGRFTISRDNSKNTLFLQMNSLRAEDTAVYYCAKGGRYGYFQHWGQGTLVTVSS
VL: SYVLTQPPSVSVAPGQTARITCGGNNIGSKSVHWYQQKPGQAPVLVVYDDSDRPSGIPERFSGSNSGNTATLTISRVEAGDEADYYCQVWDSSSDPVVFGGGTMLTVL
B11: VY016 (antibody, V domains shown)
VH: EVQLVESGGGLVQPGGSLRLSCAASGFTFSSYSMNWVRQAPGKGLEWVSYISRSGSTIYYADSVEGRFTISRDNAYNSLYLQMISLRDDDTAVYYCARGNWAYWGQGILVTVSS
VL: QSVLTQPPSVSGAPGQRVTISCTGSSSNIGAGYDVHWYQQLPGTAPKLLIYGNSNRPSGVPDRFSGSKSGTSASLAITGLQAEDETDFYCQSYDSSLSGSVFGGGTKLTVL
B12: VY017 (antibody, V domains shown)
VH: B4 VH with A14P, D31S, I57T, N77K, H80Y, G100S, H101I, F102A
VL: EIVLTQSPATLSSSPGERATLSCRASQSVTSYLNWYQQKPGQAPRLLIYDASNRATGIPARFSGSGSGTDFTLTISSLEPEDFALYYCQQRSNWPYTFGQGTKLEIK
B13: VY018 (antibody, V domains shown)
VH: QVQLQESGPGLVKPSETLSLTCTVSGGSISNYYWSWIRQPAGKGLEWIGRIYTSGDTYYNPSLQSRVTMSVDTSKNQFSLKLSAVTAADTAVYYCARAGIVGTPGLGMDVWGQGTTVTVSS
VL: SYELTQPPSVSVSPGQTARITCSGEALPKQYAYWYQQKPGQAPVLVIYKDSERPSGIPERFSGSSSGTTVTLTISGVQAEDEADYYCQSADSSGTYRVFGGGTKLTVL

One test concerns the target T8, Tau191-214 phospho-peptide (pS199) (human, pS199 (phosphoserine); SCBio-4PEG in the ELISA).
T8 construct: also called pS199 peptide
In words: BLI.
Take B1: the binding result is recorded as “no binding”.

As for B2, the binding result is on record as “no binding”.

Turning to B3, the binding result is recorded as “no binding”.

In the next test the target is T9, SCBio-4PEG-Peptide (Tau191-214) pS199-old (human, pS199; SCBio-4PEG at the peptide as in the table head).
T9 construct: the suffix old is not explained
T9 sequence (peptide, as listed by the source): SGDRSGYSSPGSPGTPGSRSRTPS
Description: one point ELISA. The text has this:
(§1) One-point ELISA was used to determine differential binding based on the individual phosphorylation patterns of each peptide. OD values (450 nm) were collected (as shown in Table 13), where a stronger positive signal is shown as a higher OD value, which is indicative of increased binding.
In general terms: In an ELISA, binding on a coated surface is turned into a signal by an enzyme label.
Regarding B1, the OD450 came to 0.057 OD450 nm.

For the molecule B2, the OD450 came out at 0.059 OD450 nm.

In turn, B3 had an OD450 of 0.063 OD450 nm.

The next test addresses T8, Tau191-214 phospho-peptide (pS199). In words: one point ELISA.
Text: as §1
B1 gave an OD450 of 0.057 OD450 nm.

For the molecule B2, the OD450 was 0.059 OD450 nm.

B3 had an OD450 of 0.054 OD450 nm.

The target of a further test is T1, Tau204-222 phospho-peptide (pT212). Description: one point ELISA.
Text: as §1
On to B4, for which the OD450 worked out at 0.082 OD450 nm.

With B5, the OD450 came to 0.087 OD450 nm.

The next test deals with T2, Tau204-222 phospho-peptide (pS214). In words: one point ELISA.
Text: as §1
B4 gave an OD450 of 0.069 OD450 nm.

Molecule B5 returned an OD450 of 0.092 OD450 nm.

A further test concerns the target T3, Tau204-222 phospho-peptide (pT212/pS214). In words: one point ELISA.
Text: as §1
For the molecule B4, the OD450 came to 0.067 OD450 nm.

For B5, the OD450 was 0.111 OD450 nm.

The target of a further test is T4, AC04 peptide. Description: one point ELISA.
Text: as §1
In turn, B4 had an OD450 of 2.85 OD450 nm.

In turn, B5 registered an OD450 of 2.83 OD450 nm.

For another test, the target named is T5, wtTau C2. In words: one point ELISA.
Text: as §1
B4 yielded an OD450 of 0.169 OD450 nm.

B5 yielded an OD450 of 0.153 OD450 nm.

Another test deals with T10, Enriched paired helical filament (ePHF; sarkosyl insoluble tau) (human, UniProt P10636 2-758, pathological (hyperphosphorylated) tau isolated from brain; sites not stated).
T10 construct: aggregate isolated from AD frontal cortical tissue
T10 sequence (P10636 other isoform, or with tags, fused parts or gaps limits assumed): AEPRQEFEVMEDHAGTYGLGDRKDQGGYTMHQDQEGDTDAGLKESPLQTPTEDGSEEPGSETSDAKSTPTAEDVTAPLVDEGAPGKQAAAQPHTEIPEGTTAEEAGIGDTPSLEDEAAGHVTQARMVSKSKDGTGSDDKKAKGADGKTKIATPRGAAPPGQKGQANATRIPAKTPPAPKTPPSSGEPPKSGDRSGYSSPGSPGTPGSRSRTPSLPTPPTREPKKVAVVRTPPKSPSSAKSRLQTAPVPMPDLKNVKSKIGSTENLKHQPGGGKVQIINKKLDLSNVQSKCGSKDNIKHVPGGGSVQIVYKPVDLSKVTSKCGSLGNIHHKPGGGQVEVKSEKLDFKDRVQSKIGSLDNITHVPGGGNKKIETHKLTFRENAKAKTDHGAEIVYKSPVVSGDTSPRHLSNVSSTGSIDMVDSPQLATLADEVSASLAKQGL
In words: direct ELISA, coated antigen. The protocol: (§2) A set of recombinant human IgG1 antibodies were prepared with clone-specific variable domain pairs selected from those presented in Table 1 and human IgG1 constant domains. These candidate antibodies were analyzed for binding to ePHF and specificity for ePHF over wild type tau by direct ELISA.
(§3) For direct ePHF and wildtype tau ELISA, plates were first coated with ePHF or wild type tau. Antigen solutions were prepared in PBS and 50 μL were pipetted into each well. Plates were covered and incubated for one hour at 37° C. or overnight at 4° C. Plates were then washed and blocked by addition of 150 μl of blocking buffer to each well and incubated one hour at room temperature. Plates were then washed before addition of serially diluted candidate antibody samples prepared in blocking buffer. Detection of candidate antibody binding was carried out by washing plates and adding a solution of enzyme-labeled secondary antibody in blocking buffer to each well. Secondary antibody binding was detected by addition of substrate and spectrophotometric analysis of resulting reaction product.
A word on the EC50: it is the concentration at which the effect is half-maximal. Regarding B6, the EC50 came to 0.06 nM.

Molecule B7 came in with an EC50 of 6.23 nM.

The molecule B8 showed an EC50 of 1.74 nM.

Turning to B9, the binding result is recorded as “no binding”.

In turn, B4 had a 50% effective concentration (EC50) of 0.07 nM.

With B10, the midpoint of the response, the EC50, lay at 0.04 nM.

For B1, the EC50 was found to be 0.18 nM.

In the case of B2, it took 0.02 nM to reach a half-maximal effect (EC50).

In turn, B5 had a 50% effective concentration (EC50) of 0.07 nM.

Turning to B3, the EC50 was determined as 0.11 nM.

With B11, the binding result is “no binding”.

The target of a further test is wild type tau (human, UniProt P10636 2-758). In words: direct ELISA, coated antigen. The protocol: as §2, §3
Sequence of wild type tau (P10636 other isoform, or with tags, fused parts or gaps limits assumed): as above
Regarding B6, the EC50 was found to be 0.98 nM.

For the molecule B7, the EC50 was determined as 0.04 nM.

As for B9, the binding result is “no binding”.

B10 registered an EC50 of 0.01 nM.

Turning to B11, the binding result is “no binding”.

A further test deals with iPHF (UniProt P10636-8 2-441). In words: BLI (Octet), antibody on biosensor tip. The protocol: Anti-human tau antibodies were assessed for affinity for iPHF by Octet (ForteBio, Menlo Park, CA) analysis. A set of recombinant human IgG1 antibodies were prepared with clone-specific variable domain pairs selected from those presented in Table 1 and human IgG1 constant domains. Candidate antibodies were immobilized on biosensor tips (ForteBio) in kinetic buffer (ForteBio). Biosensor tips were then washed before introduction of a solution of iPHF in kinetic buffer for analysis of association and dissociation with candidate antibodies.
Sequence of iPHF (P10636 other isoform, or with tags, fused parts or gaps): as the sequence (P10636 other isoform, or with tags, fused parts or gaps limits assumed) above
For orientation: Kd means the constant that tells how readily two partners part at equilibrium. Lower therefore signals a tighter complex. B6 returned a Kd of 2.9 nM.

B7 returned a Kd of 5.3 nM.

In turn, B8 had a Kd of 1.1 nM.

Molecule B4 came in with a Kd of 3.7 nM.

B12 gave a Kd of 3.7 nM.

B10 showed a Kd of 5.1 nM.

B1 showed a Kd of 0.6 nM.

Turning to B2, binding was characterised by a dissociation constant (Kd) of 7.7 nM.

B13 had a Kd of 3 nM.

Take B5: the Kd is 1 nM.

Regarding B3, the Kd was determined as 1.5 nM.

The next test addresses T6, AT8 peptide (amino acids 195-215 of tau). Description: BLI (Octet), peptide on streptavidin tip. The protocol: Briefly, phospho-peptides were immobilized on streptavidin biosensor tips and the binding ability of each antibody was assessed using an eight-point concentration gradient.
(BLI is a label-free optical method that tracks binding on a fibre tip over time.)
B1 registered a Kd of 0.0182 nM.

Consider B2, for which the Kd is 0.00435 nM.

B3 gave a Kd of 0.00382 nM.

The target of the next test is T7, Tau phospho-peptide (pS235). In words: one point ELISA on the pS235 peptide.
For B8, the binding result was “no binding (tested: not printed (one point))”.

Consider B9, for which the binding result is given as “no binding (tested: not printed (one point))”.

With B13, the binding result is “no binding (tested: not printed (one point))”.
